# Measured values: the supplement of paper PMC11316812
# ± gives the standard deviation of the averaged measurements.
# Tests used:
# MCF7 = assay: percentage of EdU-negative (G0-arrested) nuclei per well, 72 h; higher = more G0 arrest; conditions: reference: sequence is the full UniProt precursor, the tested protein was the secreted form or ectodomain
# hTERT-HMEC = assay: as above; conditions: reference: sequence is the full UniProt precursor, the tested protein was the secreted form or ectodomain
# [1] = protein concentration 0.0225 µM
# [2] = protein concentration 0.0166175 µM
# [3] = protein concentration 0.166175 µM
# [4] = protein concentration 0.02823 µM
# [5] = protein concentration 0.2823 µM
# [6] = protein concentration 0.01425 µM
# [7] = protein concentration 0.1425 µM
# [8] = protein concentration 0.0202725 µM
# [9] = protein concentration 0.202725 µM
# [10] = protein concentration 0.0357143 µM
# [11] = protein concentration 0.357143 µM
# [12] = protein concentration 0.03125 µM
# [13] = protein concentration 0.3125 µM
# [14] = protein concentration 0.01034 µM
# [15] = protein concentration 0.1034 µM
# [16] = protein concentration 0.0294275 µM
# [17] = protein concentration 0.294275 µM
# 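Also: secreted proteins added to cultured cells, EdU pulse at the end, nuclei found by Hoechst imaging, EdU status from nuclear versus surrounding ring intensity ratio, PBS as neutral control.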
sequence,measurement,setting,value
MEQWDHFHNQQEDTDSCSESVKFDARSMTALLPPNPKNSPSLQEKLKSFKAALIALYLLVFAVLIPLIGIVAAQLLKWETKNCSVSSTNANDITQSLTGKGNDSEEEMRFQEVFMEHMSNMEKRIQHILDMEANLMDTEHFQNFSMTTDQRFNDILLQLSTLFSSVQGHGNAIDEISKSLISLNTTLLDLQLNIENLNGKIQENTFKQQEEISKLEERVYNVSAEIMAMKEEQVHLEQEIKGEVKVLNNITNDLRLKDWEHSQTLRNITLIQGPPGPPGEKGDRGPTGESGPRGFPGPIGPPGLKGDRGAIGFPGSRGLPGYAGRPGNSGPKGQKGEKGSGNTLTPFTKVRLVGGSGPHEGRVEILHSGQWGTICDDRWEVRVGQVVCRSLGYPGVQAVHKAAHFGQGTGPIWLNEVFCFGRESSIEECKIRQWGTRACSHSEDAGVTCTL,percentage of EdU-negative,MCF7; [1],27.3 ± 1.6%
same,percentage of EdU-negative,MCF7; protein concentration 0.225 µM,25.4 ± 1.7%
same,percentage of EdU-negative,hTERT-HMEC; [1],5.16 ± 0.032%
same,percentage of EdU-negative,hTERT-HMEC; protein concentration 0.225 µM,5.23 ± 1.7%
MERAAPSRRVPLPLLLLGGLALLAAGVDADVLLEACCADGHRMATHQKDCSLPYATESKECRMVQEQCCHSQLEELHCATGISLANEQDRCATPHGDNASLEATFVKRCCHCCLLGRAAQAQGQSCEYSLMVGYQCGQVFQACCVKSQETGDLDVGGLQETDKIIEVEEEQEDPYLNDRCRGGGPCKQQCRDTGDEVVCSCFVGYQLLSDGVSCEDVNECITGSHSCRLGESCINTVGSFRCQRDSSCGTGYELTEDNSCKDIDECESGIHNCLPDFICQNTLGSFRCRPKLQCKSGFIQDALGNCIDINECLSISAPCPIGHTCINTEGSYTCQKNVPNCGRGYHLNEEGTRCVDVDECAPPAEPCGKGHRCVNSPGSFRCECKTGYYFDGISRMCVDVNECQRYPGRLCGHKCENTLGSYLCSCSVGFRLSVDGRSCEDINECSSSPCSQECANVYGSYQCYCRRGYQLSDVDGVTCEDIDECALPTGGHICSYRCINIPGSFQCSCPSSGYRLAPNGRNCQDIDECVTGIHNCSINETCFNIQGGFRCLAFECPENYRRSAATLQQEKTDTVRCIKSCRPNDVTCVFDPVHTISHTVISLPTFREFTRPEEIIFLRAITPPHPASQANIIFDITEGNLRDSFDIIKRYMDGMTVGVVRQVRPIVGPFHAVLKLEMNYVVGGVVSHRNVVNVHIFVSEYWF,percentage of EdU-negative,MCF7; [2],27.1 ± 0.61%
same,percentage of EdU-negative,MCF7; [3],26.7 ± 1.6%
same,percentage of EdU-negative,hTERT-HMEC; [2],3.95 ± 0.058%
same,percentage of EdU-negative,hTERT-HMEC; [3],5.63 ± 0.19%
MERASCLLLLLLPLVHVSATTPEPCELDDEDFRCVCNFSEPQPDWSEAFQCVSAVEVEIHAGGLNLEPFLKRVDADADPRQYADTVKALRVRRLTVGAAQVPAQLLVGALRVLAYSRLKELTLEDLKITGTMPPLPLEATGLALSSLRLRNVSWATGRSWLAELQQWLKPGLKVLSIAQAHSPAFSCEQVRAFPALTSLDLSDNPGLGERGLMAALCPHKFPAIQNLALRNTGMETPTGVCAALAAAGVQPHSLDLSHNSLRATVNPSAPRCMWSSALNSLNLSFAGLEQVPKGLPAKLRVLDLSCNRLNRAPQPDELPEVDNLTLDGNPFLVPGTALPHEGSMNSGVVPACARSTLSVGVSGTLVLLQGARGFA,percentage of EdU-negative,MCF7; [4],26.8 ± 1.2%
same,percentage of EdU-negative,MCF7; [5],27.2 ± 0.7%
same,percentage of EdU-negative,hTERT-HMEC; [4],4.9 ± 0.54%
same,percentage of EdU-negative,hTERT-HMEC; [5],8.12 ± 1.2%
MERASLIQKAKLAEQAERYEDMAAFMKGAVEKGEELSCEERNLLSVAYKNVVGGQRAAWRVLSSIEQKSNEEGSEEKGPEVREYREKVETELQGVCDTVLGLLDSHLIKEAGDAESRVFYLKMKGDYYRYLAEVATGDDKKRIIDSARSAYQEAMDISKKEMPPTNPIRLGLALNFSVFHYEIANSPEEAISLAKTTFDEAMADLHTLSEDSYKDSTLIMQLLRDNLTLWTADNAGEEGGEAPQEPQS,percentage of EdU-negative,MCF7; [1],25.3 ± 4.8%
same,percentage of EdU-negative,MCF7; protein concentration 0.225 µM,20.9 ± 1.9%
same,percentage of EdU-negative,hTERT-HMEC; [1],4.93 ± 0.53%
same,percentage of EdU-negative,hTERT-HMEC; protein concentration 0.225 µM,5.22 ± 0.073%
MERCPSLGVTLYALVVVLGLRATPAGGQHYLHIRPAPSDNLPLVDLIEHPDPIFDPKEKDLNETLLRSLLGGHYDPGFMATSPPEDRPGGGGGAAGGAEDLAELDQLLRQRPSGAMPSEIKGLEFSEGLAQGKKQRLSKKLRRKLQMWLWSQTFCPVLYAWNDLGSRFWPRYVKVGSCFSKRSCSVPEGMVCKPSKSVHLTVLRWRCQRRGGQRCGWIPIQYPIISECKCSC,percentage of EdU-negative,MCF7; [6],23.9 ± 0.44%
same,percentage of EdU-negative,MCF7; [7],25.4 ± 2.8%
same,percentage of EdU-negative,hTERT-HMEC; [6],4.77 ± 0.41%
same,percentage of EdU-negative,hTERT-HMEC; [7],5.81 ± 0.99%
MERDGCAGGGSRGGEGGRAPREGPAGNGRDRGRSHAAEAPGDPQAAASLLAPMDVGEEPLEKAARARTAKDPNTYKVLSLVLSVCVLTTILGCIFGLKPSCAKEVKSCKGRCFERTFGNCRCDAACVELGNCCLDYQETCIEPEHIWTCNKFRCGEKRLTRSLCACSDDCKDKGDCCINYSSVCQGEKSWVEEPCESINEPQCPAGFETPPTLLFSLDGFRAEYLHTWGGLLPVISKLKKCGTYTKNMRPVYPTKTFPNHYSIVTGLYPESHGIIDNKMYDPKMNASFSLKSKEKFNPEWYKGEPIWVTAKYQGLKSGTFFWPGSDVEINGIFPDIYKMYNGSVPFEERILAVLQWLQLPKDERPHFYTLYLEEPDSSGHSYGPVSSEVIKALQRVDGMVGMLMDGLKELNLHRCLNLILISDHGMEQGSCKKYIYLNKYLGDVKNIKVIYGPAARLRPSDVPDKYYSFNYEGIARNLSCREPNQHFKPYLKHFLPKRLHFAKSDRIEPLTFYLDPQWQLALNPSERKYCGSGFHGSDNVFSNMQALFVGYGPGFKHGIEADTFENIEVYNLMCDLLNLTPAPNNGTHGSLNHLLKNPVYTPKHPKEVHPLVQCPFTRNPRDNLGCSCNPSILPIEDFQTQFNLTVAEEKIIKHETLPYGRPRVLQKENTICLLSQHQFMSGYSQDILMPLWTSYTVDRNDSFSTEDFSNCLYQDFRIPLSPVHKCSFYKNNTKVSYGFLSPPQLNKNSSGIYSEALLTTNIVPMYQSFQVIWRYFHDTLLRKYAEERNGVNVVSGPVFDFDYDGRCDSLENLRQKRRVIRNQEILIPTHFFIVLTSCKDTSQTPLHCENLDTLAFILPHRTDNSESCVHGKHDSSWVEELLMLHRARITDVEHITGLSFYQQRKEPVSDILKLKTHLPTFSQED,percentage of EdU-negative,MCF7; [8],25.1 ± 0.47%
same,percentage of EdU-negative,MCF7; [9],24.77 ± 0.21%
same,percentage of EdU-negative,hTERT-HMEC; [8],4.82 ± 0.41%
same,percentage of EdU-negative,hTERT-HMEC; [9],5.77 ± 0.8%
MERLVIRMPFSHLSTYSLVWVMAAVVLCTAQVQVVTQDEREQLYTPASLKCSLQNAQEALIVTWQKKKAVSPENMVTFSENHGVVIQPAYKDKINITQLGLQNSTITFWNITLEDEGCYMCLFNTFGFGKISGTACLTVYVQPIVSLHYKFSEDHLNITCSATARPAPMVFWKVPRSGIENSTVTLSHPNGTTSVTSILHIKDPKNQVGKEVICQVLHLGTVTDFKQTVNKGYWFSVPLLLSIVSLVILLVLISILLYWKRHRNQDRGELSQGVQKMT,percentage of EdU-negative,MCF7; [10],23.6 ± 3.9%
same,percentage of EdU-negative,MCF7; [11],23.5 ± 1%
same,percentage of EdU-negative,hTERT-HMEC; [10],5.34 ± 1.2%
same,percentage of EdU-negative,hTERT-HMEC; [11],5.8 ± 1%
MERMLPLLALGLLAAGFCPAVLCHPNSPLDEENLTQENQDRGTHVDLGLASANVDFAFSLYKQLVLKAPDKNVIFSPLSISTALAFLSLGAHNTTLTEILKGLKFNLTETSEAEIHQSFQHLLRTLNQSSDELQLSMGNAMFVKEQLSLLDRFTEDAKRLYGSEAFATDFQDSAAAKKLINDYVKNGTRGKITDLIKDLDSQTMMVLVNYIFFKAKWEMPFDPQDTHQSRFYLSKKKWVMVPMMSLHHLTIPYFRDEELSCTVVELKYTGNASALFILPDQDKMEEVEAMLLPETLKRWRDSLEFREIGELYLPKFSISRDYNLNDILLQLGIEEAFTSKADLSGITGARNLAVSQVVHKAVLDVFEEGTEASAATAVKITLLSALVETRTIVRFNRPFLMIIVPTDTQNIFFMSKVTNPKQA,percentage of EdU-negative,MCF7; [12],24.5 ± 0.068%
same,percentage of EdU-negative,MCF7; [13],28 ± 3.5%
same,percentage of EdU-negative,hTERT-HMEC; [12],4.76 ± 0.8%
same,percentage of EdU-negative,hTERT-HMEC; [13],9.51 ± 0.15%
MERPLCSHLCSCLAMLALLSPLSLAQYDSWPHYPEYFQQPAPEYHQPQAPANVAKIQLRLAGQKRKHSEGRVEVYYDGQWGTVCDDDFSIHAAHVVCRELGYVEAKSWTASSSYGKGEGPIWLDNLHCTGNEATLAACTSNGWGVTDCKHTEDVGVVCSDKRIPGFKFDNSLINQIENLNIQVEDIRIRAILSTYRKRTPVMEGYVEVKEGKTWKQICDKHWTAKNSRVVCGMFGFPGERTYNTKVYKMFASRRKQRYWPFSMDCTGTEAHISSCKLGPQVSLDPMKNVTCENGLPAVVSCVPGQVFSPDGPSRFRKAYKPEQPLVRLRGGAYIGEGRVEVLKNGEWGTVCDDKWDLVSASVVCRELGFGSAKEAVTGSRLGQGIGPIHLNEIQCTGNEKSIIDCKFNAESQGCNHEEDAGVRCNTPAMGLQKKLRLNGGRNPYEGRVEVLVERNGSLVWGMVCGQNWGIVEAMVVCRQLGLGFASNAFQETWYWHGDVNSNKVVMSGVKCSGTELSLAHCRHDGEDVACPQGGVQYGAGVACSETAPDLVLNAEMVQQTTYLEDRPMFMLQCAMEENCLSASAAQTDPTTGYRRLLRFSSQIHNNGQSDFRPKNGRHAWIWHDCHRHYHSMEVFTHYDLLNLNGTKVAEGHKASFCLEDTECEGDIQKNYECANFGDQGITMGCWDMYRHDIDCQWVDITDVPPGDYLFQVVINPNFEVAESDYSNNIMKCRSRYDGHRIWMYNCHIGGSFSEETEKKFEHFSGLLNNQLSPQ [Q9Y4K0],percentage of EdU-negative,MCF7; [14],25.4 ± 0.28%
same,percentage of EdU-negative,MCF7; [15],27.7 ± 0.84%
same,percentage of EdU-negative,hTERT-HMEC; [14],4.4 ± 0.43%
same,percentage of EdU-negative,hTERT-HMEC; [15],9.13 ± 1.5%
MERPSLRALLLGAAGLLLLLLPLSSSSSSDTCGPCEPASCPPLPPLGCLLGETRDACGCCPMCARGEGEPCGGGGAGRGYCAPGMECVKSRKRRKGKAGAAAGGPGVSGVCVCKSRYPVCGSDGTTYPSGCQLRAASQRAESRGEKAITQVSKGTCEQGPSIVTPPKDIWNVTGAQVYLSCEVIGIPTPVLIWNKVKRGHYGVQRTELLPGDRDNLAIQTRGGPEKHEVTGWVLVSPLSKEDAGEYECHASNSQGQASASAKITVVDALHEIPVKKGEGAEL,percentage of EdU-negative,MCF7; [16],25.4 ± 0.77%
same,percentage of EdU-negative,MCF7; [17],26.5 ± 1.5%
same,percentage of EdU-negative,hTERT-HMEC; [16],4.88 ± 0.84%
same,percentage of EdU-negative,hTERT-HMEC; [17],5.65 ± 0.3%
